Reference: patent publication US7166454

Target: T1, peptide substrate KSEVNLDAEFRK derived from the sequence of Swedish amyloid precursor protein
T1 chain: KSEVNLDAEFRK

B1: β-secretase refolded from E. coli overexpression (protein)
chain: TQHGIRLPLRSGLGGAPLGLRLPRETDEEPEEPGRRGSFVEMVDNLRGKSGQGYYVEMTVGSPPQTLNILVDTGSSNFAVGAAPHPFLHRYYQRQLSSTYRDLRKGVYVPYTQGKWEGELGTDLVSIPHGPNVTVRANIAAITESDKFFINGSNWEGILGLAYAEIARPDDSLEPFFDSLVKQTHVPNLFSLQLCGAGFPLNQSEVLASVGGSMIIGGIDHSLYTGSLWYTPIRREWYYEVIIVRVEINGQDLKMDCKEYNYDKSIVDSGTTNLRLPKKVFEAAVKSIKAASSTEKFPDGFWLGEQLVCWQAGTTPWNIFPVISLYLMGEVTNQSFRITILPQQYLRPVEDVATSQDDCYKFAISQSSTGTVMGAVIMEGFYVVFDRARKRIGFAVSACHVHDEFRTAAVEGPFVTLDMEDCGYNIPQTDEST
specificity constant (Kcat/Km): 1800 ± 100 M⁻¹ s⁻¹
